Reference: patent US7189694B2, “Inhibitors of autophosphorylation protein kinases” (University of Florida Research Foundation, Inc., priority 2003, dated 2007)
Entries after “also recorded” stand apart in the source; their conditions may differ.

Legend:
[1] = system: experimental allergic encephalomyelitis; assay: Experimental allergic encephalomyelitis (EAE) in MBP-immunized NZW mice; type: in vivo
Method: NZW mice were injected intraperitoneally with PBS or Tkip (63 μg/mouse) every other day starting the day of immunization with myelin basic protein (MBP) for induction of EAE. Mice were followed daily for signs of EAE, and mean severity of paralysis for each group was graded based on the following scale: 1, loss of tail tone, 2, hind leg weakness, 3, paraparesis, 4, paraplegia, 5, moribund, death. […] All mice in the control group had disease (disease incidence=4/4), while one mouse in the Tkip group had disease (disease incidence=1/5).
NZW mice were immunized with myelin basic protein (MBP) (300 ug) emulsified in complete Freund's adjuvant for the induction of experimental allergic encephalomyelitis (EAE). Tkip peptide (63 μg/mouse) was administered to mice every other day starting the day of immunization. Phosphate buffered saline (PBS) was used as the vehicle of transfer and as the control agent for the treatment of the control group. Mice were followed daily for signs of EAE and mean severity of paralysis for each group was graded based on the scale presented in the legend of FIG. 9. […] Furthermore, the mean severity of disease for the control group (2.1) was twice as high as that of the Tkip group (0.8) at its peak. The time of onset of disease for the control group and Tkip-treated group was similar (24 days post immnunization). Thus, treatment of MBP-immunized mice with Tkip peptide protects them from the autoimmune disease, EAE.

c-src = biological target: T1, c-src (Homo sapiens, UniProt P12931); assay: Src kinase assay with substrate peptide (P81 discs); type: biochemical; details: peptide at 50 μM; FIG. 2C
T1 construct: purchased Upstate Biotechnology, Lake Placid, N.Y
Method: (§1) Src kinase activity was performed with a Src substrate peptide (KVEKIGEGTYGVVYK) (SEQ ID NO. 73) using a Src kinase assay kit according to the manufacturer's specifications (Upstate Biotechnology, Lake Placid, N.Y.) according to the manufacturer's specifications. Briefly, Src substrate peptide was incubated in Src kinase buffer (100 mM Tris-HCl [pH 7.2], 125 mM MgCl2, 25 mM MnCl2, 2 mM EGTA, 0.02 mM Na3VO4, and 2 mM dithioreitol), 5 μCi of [^32P]γ-ATP (75 mM MnCl2, 500 μM ATP), recombinant human Src (Upstate Biotechnology, Lake Placid, N.Y.), and Tkip, JAK2 WT peptide, or in the absence of peptide for 10 min at 30° C. Reaction mixtures were spotted on P81 phosphocellulose discs (supplied with kit) to bind phosphorylated Src substrate peptide, washed three times for 5 min with 0.75% phosphoric acid, washed twice with acetone for 1 min, and placed in vials to which 4 ml of ScintiVerse® (Fisher, Pittsburgh, Pa.) was added. The phosphocellulose discs were analyzed using a liquid scintillation counter to measure ^32P-labeled proteins. For comparison with Src, JAK2 was also assayed using the same procedure. The assay was setup as described above for the Src kinase assay. However, reactions were incubated in the presence of 2 mM dithioreitol in the buffer to release JAK2 from the agarose beads. Following the appropriate incubation period reactions were gently centrifuged. […]

[2] = biological target: T2, JAK2 WT peptide (JAK2 autophosphorylation site 1001LPQDKEYYKVKEP) (Homo sapiens, UniProt O60674); assay: ELISA binding of biotinylated JAK2 WT peptide to solid-phase peptides
T2 construct: made in house; host or cells: chemical synthesis (Fmoc)
Method: (§2) Binding assays: For ELISA binding assays Tkip and other peptides to be tested were bound to 96-well plates in 0.1 M carbonate binding buffer (pH 9.6) at a final concentration of 3 μg/well (50 μl). Wells were then washed three times with wash buffer containing 0.9% NaCl and 0.05% tween-20 in PBS and blocked with 2% gelatin and 0.05% tween-20 in PBS for 1 h at room temperature. Wells were then washed three times with wash buffer and incubated with various concentrations of biotinylated JAK2 WT peptide and biotinylated P-JAK2 WT peptide for 1 h at room temperature in blocking buffer. Following incubation, wells were washed five times with wash buffer to remove any unbound biotinylated peptides. Bound biotinylated peptides were detected by incubation with a 1:500 dilution of NEUTRAVIDIN biotin binding-protein conjugated with horseradish peroxidase (Molecular Probes, Eugene, Oreg.) in blocking buffer for 1 h at room temperature. Wells were then washed five times with wash buffer and developed with a solution of o-phenylenediamine (OPD) in stable peroxidase buffer (Pierce, Rockford, Ill.). The assay was stopped with the addition of 2 M H2SO4 (50 μl) to each well. Absorbance was measured using a 450 microplate reader (Bio-rad, Hercules, Calif.) at 490 nm. Control experiments were carried out as described above in the absence of immobilized peptides.

EGFR = biological target: T3, EGFR (Homo sapiens, UniProt P00533); assay: In vitro EGFR autophosphorylation kinase assay; type: biochemical; details: peptide at 50 μM; FIG. 2E
T3 construct: human EGFR isolated from A431 cells; purchased Upstate Biotechnology, Lake Placid, N.Y; host or cells: A431 cells (endogenous receptor, isolated)
Method: (§3) In vitro Kinase Assays: Autophosphorylation activity of EGFR and VEGFR-1 was measured in a reaction mixture containing kinase buffer (20 mM Tris-HCl [pH 7.5], 2 mM dithioreitol, 50 mM potassium chloride, 0.3 mM sodium orthovanadate, 5 mM magnesium chloride, 10 mM glycerophosphate, 2 mM EGTA, […] manganese chloride), Tkip, substrates, and 5 μCi of [^32P]γ-ATP (specific activity 6000 Ci/mmol; 1 mCi=37 Mbq) (Amersham Biosciences, Piscataway, N.J.). EGFR and VEGFR in vitro kinase assays were carried out in 22.5 μL reaction volumes containing 10 μL Tkip, 2.5 μL substrates, and 10 μL [^32P]γ-ATP incubated at 30° C. for 10 min. EGFR (supplied precomplexed with EGF) was obtained from Upstate Biotechnology (Lake Placid, N.Y.). VEGFR and VEGF were obtained from Calbiochem (San Diego, Calif.) and Peprotech (Rocky Hill, N.J.), respectively.
(§4) Determination of JAK2 autophosphorylation activity was performed in reaction mixtures containing recombinant human JAK2 immobilized on agarose beads (Upstate Biotechnology, Lake Placid, N.Y.), 1 μCi/μl of [^32P]γ-ATP (Amersham Biosciences, Piscataway, N.J.), and either Tkip or JAK 2 WT peptide incubated in kinase buffer (10 mM HEPES [pH 7.4], 50 mM sodium chloride, 0.1 mM sodium orthovanadate, 5 mM magnesium chloride, 5 mM manganese chloride). […]

JAK2/IFNGR-1 = biological target: T4, JAK2/IFNGR-1 (Homo sapiens, UniProt O60674); assay: JAK2 kinase assay processed on P81 phosphocellulose discs (32P incorporation); type: biochemical; details: peptide at 50 μM; FIG. 2D
T4 construct: purchased Upstate Biotechnology, Lake Placid, N.Y
T4 sequence (O60674 whole entry): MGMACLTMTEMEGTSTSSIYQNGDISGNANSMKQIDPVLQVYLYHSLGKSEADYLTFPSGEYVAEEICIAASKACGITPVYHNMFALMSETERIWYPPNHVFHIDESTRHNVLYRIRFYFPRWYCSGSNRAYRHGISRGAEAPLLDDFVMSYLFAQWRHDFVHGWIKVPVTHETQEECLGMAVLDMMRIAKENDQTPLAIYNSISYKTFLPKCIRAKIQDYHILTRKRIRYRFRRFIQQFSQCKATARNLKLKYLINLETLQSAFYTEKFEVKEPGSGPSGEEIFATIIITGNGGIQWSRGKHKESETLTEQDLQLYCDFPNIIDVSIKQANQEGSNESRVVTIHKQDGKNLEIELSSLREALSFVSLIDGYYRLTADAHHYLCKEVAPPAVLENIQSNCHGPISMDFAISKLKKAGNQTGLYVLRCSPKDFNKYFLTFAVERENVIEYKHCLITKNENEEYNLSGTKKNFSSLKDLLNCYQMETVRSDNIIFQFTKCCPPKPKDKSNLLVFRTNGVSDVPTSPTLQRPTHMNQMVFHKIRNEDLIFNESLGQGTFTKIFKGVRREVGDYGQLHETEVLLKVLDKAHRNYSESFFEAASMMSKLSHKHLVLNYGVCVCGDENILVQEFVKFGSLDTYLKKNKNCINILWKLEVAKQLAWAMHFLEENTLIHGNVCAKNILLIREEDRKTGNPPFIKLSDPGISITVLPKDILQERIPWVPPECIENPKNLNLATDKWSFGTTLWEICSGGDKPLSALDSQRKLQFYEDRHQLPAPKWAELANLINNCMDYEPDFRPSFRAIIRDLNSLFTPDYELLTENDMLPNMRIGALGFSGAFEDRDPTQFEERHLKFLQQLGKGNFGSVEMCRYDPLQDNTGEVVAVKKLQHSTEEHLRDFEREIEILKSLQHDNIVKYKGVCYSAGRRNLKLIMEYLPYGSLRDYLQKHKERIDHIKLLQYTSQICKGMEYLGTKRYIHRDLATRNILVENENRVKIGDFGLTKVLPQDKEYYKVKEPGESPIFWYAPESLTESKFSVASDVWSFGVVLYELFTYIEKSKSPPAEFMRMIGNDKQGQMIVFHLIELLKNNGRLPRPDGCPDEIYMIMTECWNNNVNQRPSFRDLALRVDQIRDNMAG
Method: as §1

VEGFR = biological target: T5, VEGFR (Homo sapiens, UniProt P17948); assay: In vitro VEGFR autophosphorylation kinase assay; type: biochemical; details: peptide at 50 μM; FIG. 2B
T5 construct: purchased Calbiochem, San Diego, Calif
T5 sequence (P17948 27-1338): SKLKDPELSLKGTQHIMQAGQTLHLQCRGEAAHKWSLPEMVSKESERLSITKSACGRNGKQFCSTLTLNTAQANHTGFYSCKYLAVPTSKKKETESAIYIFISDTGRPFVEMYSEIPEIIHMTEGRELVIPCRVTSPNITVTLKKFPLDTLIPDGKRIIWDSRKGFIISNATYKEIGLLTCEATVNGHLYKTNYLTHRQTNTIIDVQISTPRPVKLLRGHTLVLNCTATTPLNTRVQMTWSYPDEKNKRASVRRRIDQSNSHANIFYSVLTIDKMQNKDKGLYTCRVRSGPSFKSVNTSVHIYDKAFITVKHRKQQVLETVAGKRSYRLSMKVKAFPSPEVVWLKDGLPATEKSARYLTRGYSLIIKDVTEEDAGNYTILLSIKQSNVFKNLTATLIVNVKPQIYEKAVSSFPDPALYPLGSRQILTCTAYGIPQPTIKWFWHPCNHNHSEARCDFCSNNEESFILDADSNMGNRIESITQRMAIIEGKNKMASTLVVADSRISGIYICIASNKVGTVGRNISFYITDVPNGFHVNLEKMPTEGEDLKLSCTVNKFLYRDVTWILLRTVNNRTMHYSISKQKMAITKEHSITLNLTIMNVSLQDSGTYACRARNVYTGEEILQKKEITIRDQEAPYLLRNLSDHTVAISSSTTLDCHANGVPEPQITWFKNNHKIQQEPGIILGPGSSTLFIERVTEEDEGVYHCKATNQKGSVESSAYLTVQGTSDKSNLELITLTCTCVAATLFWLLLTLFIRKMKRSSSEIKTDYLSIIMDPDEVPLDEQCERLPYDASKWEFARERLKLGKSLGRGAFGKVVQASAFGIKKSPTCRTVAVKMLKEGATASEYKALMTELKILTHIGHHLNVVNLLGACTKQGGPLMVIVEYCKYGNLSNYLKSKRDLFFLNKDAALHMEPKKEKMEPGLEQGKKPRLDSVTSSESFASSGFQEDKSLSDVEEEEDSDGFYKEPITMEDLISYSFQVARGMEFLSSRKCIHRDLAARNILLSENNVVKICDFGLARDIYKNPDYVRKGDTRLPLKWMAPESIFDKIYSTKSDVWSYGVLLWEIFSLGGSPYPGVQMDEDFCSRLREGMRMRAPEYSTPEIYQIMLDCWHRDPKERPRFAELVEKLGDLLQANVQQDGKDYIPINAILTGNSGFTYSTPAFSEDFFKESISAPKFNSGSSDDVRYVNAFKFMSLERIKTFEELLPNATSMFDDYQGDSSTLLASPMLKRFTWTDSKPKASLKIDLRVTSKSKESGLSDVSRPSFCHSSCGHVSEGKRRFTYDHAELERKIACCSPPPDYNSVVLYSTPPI
Method: as §3, §4

recombinant human JAK2 = biological target: T6, recombinant human JAK2 (Homo sapiens, UniProt O60674); assay: In vitro JAK2 kinase assay (32P, SDS-PAGE, autoradiography); type: biochemical; details: peptide at 50 μM
T6 construct: purchased Upstate Biotechnology, Lake Placid, N.Y
T6 sequence (O60674 whole entry): as the sequence (O60674 whole entry) above
Method: Determination of JAK2 autophosphorylation activity was performed in reaction mixtures containing recombinant human JAK2 immobilized on agarose beads (Upstate Biotechnology, Lake Placid, N.Y.), 1 μCi/μl of [^32P]γ-ATP (Amersham Biosciences, Piscataway, N.J.), and either Tkip or JAK 2 WT peptide incubated in kinase buffer (10 mM HEPES [pH 7.4], 50 mM sodium chloride, 0.1 mM sodium orthovanadate, 5 mM magnesium chloride, 5 mM manganese chloride). JAK2 kinase assays were performed in 35 μL reaction volumes containing 10.5 μL Tkip, 20 μL JAK2 agarose beads, 1 μL sIFNGR-1, and 3.5 μL [^32P]γ-ATP incubated at 30° C. for 30 min with intermittent agitation. […] EGFR, VEGFR, and JAK2 kinase reactions were terminated with the addition of 5 μl 6×SDS sample buffer (0.5 M Tris-HCl [pH 6.8], 36% glycerol, 10% SDS, 9.3% DTT, 0.012% bromophenol blue). Incubation of JAK2 agarose beads in SDS sample buffer (100° C.) was designed to elute bound proteins from the agarose beads. The reaction mixtures were separated on a 10% SDS polyacrilamide gel. Autoradiography was used to determine phosphorylation activity.

[3] = biological target: T7, p-JAK2 WT peptide (phosphorylated at 1007Y) (Homo sapiens, UniProt O60674); assay: Solid phase binding of biotinylated phosphorylated JAK2 WT peptide to immobilized Tkip; details: FIG. 4
T7 construct: made in house; host or cells: chemical synthesis (Fmoc)
Method: as §2

WLVFFVIFYFFR (amino acid sequence of a peptide that can be used according to the present invention) [Tkip]
time of onset of disease ([1]; 63 μg/mouse every other day): 24 days post immnunization | mean severity of disease (paralysis scale 1-5) ([1]; 63 μg/mouse every other day, at its peak): 0.8 | incidence of disease (EAE) ([1]; 63 μg/mouse intraperitoneally every other day from day of immunization): 1/5 | inhibition of c-src phosphorylation of a protein substrate (c-src): failed to inhibit | binding of biotinylated JAK2 WT peptide to solid-phase peptide ([2]; FIG. 1A, ELISA, peptides coated on 96-well plates): bound only to Tkip peptide in a dose-dependent manner | binding of Tkip to unphosphorylated JAK2 WT ([2]; FIG. 4, immobilized Tkip): bound both JAK2 WT and p-JAK2 WT in a dose-dependent manner | inhibition of EGFR autophosphorylation (EGFR): completely inhibited | inhibition of 32P incorporation into JAK2/IFNGR-1 (JAK2/IFNGR-1): greater than 95% | inhibition of VEGFR autophosphorylation (VEGFR): did not inhibit | inhibition of JAK2 autophosphorylation (recombinant human JAK2): completely inhibited; also recorded: also inhibited | inhibition of JAK2 phosphorylation of IFNGR-1 (recombinant human JAK2): completely inhibited; also recorded: also inhibited | fifty percent endpoint concentration, fold lower for p-JAK2 WT binding versus unphosphorylated JAK2 WT binding [3]: approximately 9 fold | binding of Tkip to p-JAK2 WT ([3]; immobilized Tkip): binding was most efficient to p-JAK2 WT
